From the supplement of paper PMC9732359
± gives the uncertainty stated by the source.

Experiment: protein stability index of a GFP-peptide fusion (yeast GPS) (PSI 1-4); higher = more stable; sorted into four equal gates, so the index is relative within each strain
Outline: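 Yeast carrying a pooled library were grown to mid-log phase in leucine-free medium. Each library plasmid expresses Cherry and has a tiled 17-residue yeast protein peptide fused downstream of GFP. Cells were sorted into four equal gates by GFP/Cherry ratio, and plasmids from each gate were PCR-amplified, Illumina-sequenced and assigned to strains by barcode. Summing, across gates, the read frequency times the gate number gave each peptide's protein stability index.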

Sequence	protein stability index (doa10∆)	protein stability index (pdr5∆)	protein stability index (san1∆)	protein stability index (ubr1∆)
IIFQQLLFWTDPRNLVN [YCG1]	2.04 ± 0.082	2.35 ± 0.067	3.1 ± 0.059	2.13 ± 0.11
IILPLDNATLTELVDKA [SSN2]	2.54 ± 0.11	3.16 ± 0.15	2.6 ± 0.099	1.95 ± 0.26
IIQLILWSIHPSRQFDH [SRB8]	1.57 ± 0.047	1.47 ± 0.049	1.59 ± 0.087	1.54 ± 0.05
IIRPILGKVRFANYKLL [SRB4]	1.44 ± 0.045	1.75 ± 0.043	1.14 ± 0.1	1.73 ± 0.057
IIRQLSELNEGNLSKRE [SRB8]	3.18 ± 0.12	3.53 ± 0.11	3.4 ± 0.1	3.42 ± 0.27
IISRLNADFQKPWFATV [FAS1]	2.27 ± 0.066	2.4 ± 0.063	2.1 ± 0.071	2.96 ± 0.069
IISTAIADSTHVKRITK [ECM29]	2.94 ± 0.1	2.95 ± 0.092	2.6 ± 0.1	3.13 ± 0.078
IIVENSGTSGDEDVDVL [RPN2]	3.3 ± 0.12	3.61 ± 0.095	3.5 ± 0.075	3.52 ± 0.095
IKCSQSSHLSDNDFIIN [POP5]	2.96 ± 0.09	2.85 ± 0.059	2.66 ± 0.059	2.55 ± 0.041
IKEIINASKVISTPIIN [RPO31]	3.08 ± 0.11	1.88 ± 0.17	1.03 ± 0.18	1.53 ± 0.25
IKIFELKLPADATTWRY [IRR1]	2.03 ± 0.056	2.06 ± 0.049	2.26 ± 0.08	2.39 ± 0.046
IKKFAKLHMGTDDVRLA [RPL31A]	1.7 ± 0.037	1.32 ± 0.042	1.24 ± 0.064	1.58 ± 0.037
IKKYASVVRVLVHTQIR [RPL3]	1.87 ± 0.064	2.32 ± 0.074	1.62 ± 0.11	2.13 ± 0.044
IKLSLKDKTKNISAEII [SMC4]	2.84 ± 0.082	3.09 ± 0.08	3.04 ± 0.066	3.11 ± 0.082
IKNISNRVGLTLDNIDD [ARP9]	2.65 ± 0.24	3.03 ± 0.11	3.16 ± 0.091	3.32 ± 0.073
IKPKPLWSGKQILSVAI [RPO21]	1.62 ± 0.056	1.53 ± 0.047	1.4 ± 0.073	1.62 ± 0.064
IKQQQQQQQQQNGQQPP [YML103C/NUP188]	2.31 ± 0.036	2.63 ± 0.039	2.48 ± 0.04	2.39 ± 0.034
IKRMAIRNIVEAAAVRD [RPS26A]	1.29 ± 0.069	1.68 ± 0.097	1.83 ± 0.16	1.93 ± 0.055
IKSGVAKLESLLENSVD [MTW1]	3.29 ± 0.098	3.4 ± 0.091	3.32 ± 0.055	3.4 ± 0.075
IKTRDACPLDNQPWQLA [HRT1]	3.02 ± 0.085	2.66 ± 0.063	2.27 ± 0.073	3.12 ± 0.049

Sequence	protein stability index (doa10∆)	protein stability index (pdr5∆)	protein stability index (san1∆)	protein stability index (ubr1∆)
IKWENAFVSVYSKNNPN [PRP8]	2.11 ± 0.057	2.77 ± 0.05	3.07 ± 0.053	2.61 ± 0.031
ILCIFEGEKCHPQDFGN [SEC65]	2.13 ± 0.059	2.39 ± 0.066	2.14 ± 0.087	2.44 ± 0.053
ILDFGPGGASGLGVLTH [FAS1]	2.82 ± 0.082	2.74 ± 0.092	–	2.84 ± 0.2
ILDGQDVEENRSEFIES [YJR042W/NUP85]	3.13 ± 0.09	3.2 ± 0.071	3.48 ± 0.072	3.27 ± 0.038
ILEDTATMSVFLQRIDF [RRI2]	2.78 ± 0.059	2.53 ± 0.05	2.76 ± 0.056	2.59 ± 0.042
ILEDYCYFRDFEYCRID [ISW2]	2.56 ± 0.13	1.35 ± 0.077	1.4 ± 0.11	1.35 ± 0.038
ILKRDFELVSDLSYIEF [ECM29]	2.54 ± 0.079	2.67 ± 0.078	2.58 ± 0.072	2.76 ± 0.054
ILLTSISRERDLFTHLW [SRP68]	2.85 ± 0.13	2.71 ± 0.18	2.75 ± 0.1	2.73 ± 0.11
ILRMGAFRTIESKSDDN [RRI1]	2.88 ± 0.094	2.8 ± 0.11	2.92 ± 0.066	2.56 ± 0.065
ILSLEQSSRVVSLSQLL [YCS4]	1.84 ± 0.072	1.5 ± 0.05	2.12 ± 0.098	1.85 ± 0.063
ILVMETSEEQTKFLAKN [SWP82]	3.01 ± 0.094	2.91 ± 0.11	2.94 ± 0.048	3 ± 0.092
IMGFISYHNGNLKGRPY [FAS2]	3 ± 0.13	2.95 ± 0.11	3.28 ± 0.057	3.01 ± 0.12
IMSTEAHVNKVTEETTK [SIR4]	2.77 ± 0.09	2.89 ± 0.059	2.97 ± 0.04	2.85 ± 0.063
INAKNIAFASNYGIVEL [RRP43]	2.04 ± 0.053	1.49 ± 0.056	1.4 ± 0.14	1.84 ± 0.051
INDPTNKEYTLVHGIFG [SIN4]	2.1 ± 0.09	2.21 ± 0.091	2.25 ± 0.13	1.94 ± 0.19
INDRNDRAIRKTCQWYS [DIS3]	3.21 ± 0.087	3.09 ± 0.097	2.98 ± 0.068	3.25 ± 0.12
INGEDPANNHQLGLQTV [SMX2]	2.93 ± 0.11	2.94 ± 0.1	2.9 ± 0.073	3.08 ± 0.06
INLNVDDDILIIRPILG [SRB4]	3.42 ± 0.15	3.07 ± 0.1	3.21 ± 0.059	3.21 ± 0.057
INNPVNLTIHFGGEKGK [FAS1]	2.97 ± 0.068	2.8 ± 0.097	2.8 ± 0.07	3.25 ± 0.069
